Assay results from publication PMC3521592 (Biochemistry, 2012).
Read-outs that look alike come from different tables or passages of the source.

T1: untagged HPV16-E7_(1–98) (human papillomavirus 16 (HPV16)), P03129
T1 chain: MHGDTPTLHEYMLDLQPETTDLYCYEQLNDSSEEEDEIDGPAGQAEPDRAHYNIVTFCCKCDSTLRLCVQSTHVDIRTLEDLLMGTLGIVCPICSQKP


How the values were obtained:
[1] = biological target: T2, p300CH1, CH1 domain of human p300 (residues 323–424), untagged (human, UniProt Q09472 323-424); assay: pull-down
[2] = biological target: T2, p300CH1, CH1 domain of human p300 …; assay: AUC
[3] = biological target: T2, p300CH1, CH1 domain of human p300 …; assay: AUC; remark: listed apart in the source
[4] = biological target: T1, untagged HPV16-E7_(1–98) (human …); assay: AUC; details: remark: other sources report otherwise

T2 sequence (Q09472 323-424): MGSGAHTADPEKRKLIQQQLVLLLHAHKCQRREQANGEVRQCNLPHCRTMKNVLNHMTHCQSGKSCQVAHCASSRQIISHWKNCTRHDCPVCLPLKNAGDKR

Row | Binder | stoichiometry N [2] | stoichiometry N [3] | other results
1 | MHGDTPTLHEYMLDLQPETTDLYCYEQLNDSSEEEDEIDGPAGQAE (domain or fragment) [GST-HPV16-E7_(1–46)] |  |  | binding result [1]: binds
2 | untagged Ad5-E1A_(1–77) (domain or fragment) MRHIICHGGVITEEMAASLLDQLIEEVLADNLPPPSHFEPPTLHELYDLDVTAPEDPNEEAVSQIFPDSVMLAVQEG | 1 |  | 
3 | untagged HPV16-E7_(1–51) (domain or fragment) MHGDTPTLHEYMLDLQPETTDLYCYEQLNDSSEEEDEIDGPAGQAEPDRAH |  | 1 | 
4 | 6xHis-Ad5-E1A_(1–138) (domain or fragment) MRHIICHGGVITEEMAASLLDQLIEEVLADNLPPPSHFEPPTLHELYDLDVTAPEDPNEEAVSQIFPDSVMLAVQEGIDLLTFPPAPGSPEPPHLSRQPEQPEQRALGPVSMPNLVPEVIDLTCHEAGFPPSDDEDEE | 1 |  | 
5 | 6xHis-Ad5-E1A_(1–189) (domain or fragment) MRHIICHGGVITEEMAASLLDQLIEEVLADNLPPPSHFEPPTLHELYDLDVTAPEDPNEEAVSQIFPDSVMLAVQEGIDLLTFPPAPGSPEPPHLSRQPEQPEQRALGPVSMPNLVPEVIDLTCHEAGFPPSDDEDEEGEEFVLDYVEHPGHGCRSCHYHRRNTGDPDIMCSLCYMRTCGMFVYSPVSE | 1 |  | 
6 | untagged HPV16-E7_(1–98) (natural protein) MHGDTPTLHEYMLDLQPETTDLYCYEQLNDSSEEEDEIDGPAGQAEPDRAHYNIVTFCCKCDSTLRLCVQSTHVDIRTLEDLLMGTLGIVCPICSQKP |  | 1 | stoichiometry N [4]: 2
